Measured values: US20230365956A1 (SYSTIMMUNE, published 2023)

What was measured:
[1] = molecular target: T1, SARS-CoV-2 RBD, wild type (Sino Biological) (SARS-CoV-2, UniProt P0DTC2 319-541); experiment: BLI, affinity format: binder on AHC sensor, RBD in solution
T1 construct: domain: RBD

[2] = molecular target: T2, SARS-CoV-2 RBD variant Gamma (K417T, E484K, N501Y) (Sino Biological) (SARS-CoV-2, UniProt P0DTC2 319-541); experiment: as above
T2 construct: domain: RBD

[3] = molecular target: T3, SARS-CoV-2 RBD variant Beta (K417N, E484K, N501Y) (Sino Biological) (SARS-CoV-2, UniProt P0DTC2 319-541); experiment: as above
T3 construct: domain: RBD

[4] = molecular target: T4, SARS-CoV-2 RBD variant Delta (L452R, T478K) (Sino Biological) (SARS-CoV-2, UniProt P0DTC2 319-541); experiment: as above
T4 construct: domain: RBD

[5] = molecular target: T5, SARS-CoV-2 RBD variant Lambda (L452Q, F490S) (Sino Biological) (SARS-CoV-2, UniProt P0DTC2 319-541); experiment: as above
T5 construct: domain: RBD

[6] = molecular target: T6, SARS-CoV-2 RBD variant Alpha (N501Y) (Sino Biological) (SARS-CoV-2, UniProt P0DTC2 319-541); experiment: as above
T6 construct: domain: RBD

[7] = molecular target: T7, SARS-CoV-2 RBD variant Kappa (L452R, E484Q) (Sino Biological) (SARS-CoV-2, UniProt P0DTC2 319-541); experiment: as above
T7 construct: domain: RBD

[8] = molecular target: T1, SARS-CoV-2 RBD, wild type (Sino …); experiment: BLI, affinity format: response at highest analyte concentration
[9] = molecular target: T2, SARS-CoV-2 RBD variant Gamma (K417T, …); experiment: as above
[10] = molecular target: T3, SARS-CoV-2 RBD variant Beta (K417N, …); experiment: as above
[11] = molecular target: T4, SARS-CoV-2 RBD variant Delta (L452R, …); experiment: as above
[12] = molecular target: T5, SARS-CoV-2 RBD variant Lambda (L452Q, …); experiment: as above
[13] = molecular target: T6, SARS-CoV-2 RBD variant Alpha (N501Y) …; experiment: as above
[14] = molecular target: T7, SARS-CoV-2 RBD variant Kappa (L452R, …); experiment: as above
[15] = molecular target: T1, SARS-CoV-2 RBD, wild type (Sino …); experiment: BLI, avidity format: response at highest analyte concentration
[16] = molecular target: T2, SARS-CoV-2 RBD variant Gamma (K417T, …); experiment: as above
[17] = molecular target: T3, SARS-CoV-2 RBD variant Beta (K417N, …); experiment: as above
[18] = molecular target: T4, SARS-CoV-2 RBD variant Delta (L452R, …); experiment: as above
[19] = molecular target: T5, SARS-CoV-2 RBD variant Lambda (L452Q, …); experiment: as above
[20] = molecular target: T6, SARS-CoV-2 RBD variant Alpha (N501Y) …; experiment: as above
[21] = molecular target: T7, SARS-CoV-2 RBD variant Kappa (L452R, …); experiment: as above
[22] = molecular target: T1, SARS-CoV-2 RBD, wild type (Sino …); experiment: BLI, avidity format: biotinylated RBD on SA sensor, binder in solution
[23] = molecular target: T2, SARS-CoV-2 RBD variant Gamma (K417T, …); experiment: as above
[24] = molecular target: T3, SARS-CoV-2 RBD variant Beta (K417N, …); experiment: as above
[25] = molecular target: T4, SARS-CoV-2 RBD variant Delta (L452R, …); experiment: as above
[26] = molecular target: T5, SARS-CoV-2 RBD variant Lambda (L452Q, …); experiment: as above
[27] = molecular target: T6, SARS-CoV-2 RBD variant Alpha (N501Y) …; experiment: as above
[28] = molecular target: T7, SARS-CoV-2 RBD variant Kappa (L452R, …); experiment: as above

B1: Tixagevimab (antibody, V domains shown)
VH: QMQLVQSGPEVKKPGTSVKVSCKASGFTFMSSAVQWVRQARGQRLEWIGWIVIGSGNTNYAQKFQERVTITRDMSTSTAYMELSSLRSEDTAVYYCAAPYCSSISCNDGFDIWGQGTMVTVSS
VL: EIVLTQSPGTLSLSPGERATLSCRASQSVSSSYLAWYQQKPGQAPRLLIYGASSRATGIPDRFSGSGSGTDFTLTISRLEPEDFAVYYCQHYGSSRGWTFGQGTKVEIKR
Kd [1]: 3.63 nM
koff [1]: 0.00406 s⁻¹
kon [1]: 1.12e+06 M⁻¹ s⁻¹
Kd [2]: 5.83 nM
koff [2]: 0.00484 s⁻¹
kon [2]: 830000 M⁻¹ s⁻¹
Kd [3]: 3.24 nM
koff [3]: 0.00318 s⁻¹
kon [3]: 981000 M⁻¹ s⁻¹
Kd [4]: 3.83 nM
koff [4]: 0.0043 s⁻¹
kon [4]: 1.12e+06 M⁻¹ s⁻¹
Kd [5]: 4.31 nM
koff [5]: 0.00337 s⁻¹
kon [5]: 782000 M⁻¹ s⁻¹
Kd [6]: 3.17 nM
koff [6]: 0.0026 s⁻¹
kon [6]: 821000 M⁻¹ s⁻¹
Kd [7]: 5.21 nM
koff [7]: 0.00469 s⁻¹
kon [7]: 900000 M⁻¹ s⁻¹
Response [8]: 0.477 nm shift
Response [9]: 0.474 nm shift
Response [10]: 0.46 nm shift
Response [11]: 0.513 nm shift
Response [12]: 0.411 nm shift
Response [13]: 0.552 nm shift
Response [14]: 0.472 nm shift
Response [15]: 1.7 nm shift
Response [16]: 1.58 nm shift
Response [17]: 1.14 nm shift
Response [18]: 1.3 nm shift
Response [19]: 1.76 nm shift
Response [20]: 1.35 nm shift
Response [21]: 1.54 nm shift
Kd [22]: 0.0221 nM
koff [22]: 7.4e-06 s⁻¹
kon [22]: 335000 M⁻¹ s⁻¹
Kd [23]: < 0.001 nM
koff [23]: < 1e-07 s⁻¹
kon [23]: 376000 M⁻¹ s⁻¹
Kd [24]: < 0.001 nM
koff [24]: < 1e-07 s⁻¹
kon [24]: 440000 M⁻¹ s⁻¹
Kd [25]: 0.0303 nM
koff [25]: 1.28e-05 s⁻¹
kon [25]: 422000 M⁻¹ s⁻¹
Kd [26]: < 0.001 nM
koff [26]: < 1e-07 s⁻¹
kon [26]: 362000 M⁻¹ s⁻¹
Kd [27]: < 0.001 nM
koff [27]: < 1e-07 s⁻¹
kon [27]: 447000 M⁻¹ s⁻¹
Kd [28]: < 0.001 nM
koff [28]: < 1e-07 s⁻¹
kon [28]: 416000 M⁻¹ s⁻¹
